Experimental data as given in PMC3818223, “A RhoC Biosensor Reveals Differences in the Activation Kinetics of RhoA and RhoC in Migrating Cells” (PLoS ONE, 2013).

How the values were obtained:
[1] = target: T1, RhoC Q63L, full length, as the C-terminal module of the RhoC FLARE.sc biosensor (UniProt P08134 1-193, Q63L); test: FRET or BRET; intramolecular FRET of the single-chain biosensor (binding domain-mCerulean-linker-mVenus-RhoC); fluorometry of cold, live HEK293T cell suspensions in PBS 48 h after transfection, excitation 433 nm, emission 450-600 nm, FRET/CFP ratio; settings: partners not purified
T1 construct: RhoC GTPase, full length, with Q63L; On one chain with m1, as m2; also called constitutively active mutant; source: HEK293T, transfected (Lipofectamine2000), in live cell suspension; not shown: monomeric Venus, N-terminal, kept
T1 sequence (P08134 whole entry Q63L, the tested form may be a part): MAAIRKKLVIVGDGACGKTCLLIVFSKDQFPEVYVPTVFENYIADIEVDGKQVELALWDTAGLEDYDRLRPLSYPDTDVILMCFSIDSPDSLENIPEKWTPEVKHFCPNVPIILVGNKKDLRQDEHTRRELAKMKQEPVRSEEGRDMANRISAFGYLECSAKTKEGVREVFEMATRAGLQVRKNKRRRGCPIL

[2] = target: T2, RhoC G14V, full length, as the C-terminal module of the RhoC FLARE.sc biosensor (UniProt P08134 1-193, G14V); test: as above; settings: partners not purified
T2 construct: RhoC GTPase, full length, with G14V; On one chain with m1, as m2; also called constitutively active mutant; source: HEK293T, transfected (Lipofectamine2000), in live cell suspension; not shown: monomeric Venus, N-terminal, kept
T2 sequence (P08134 whole entry G14V): as the sequence (P08134 whole entry Q63L, the tested form may be a part) above, with G14V, L63Q counted along it

increase in FRET ratio against the T19N biosensor [1]: 41%
increase in FRET ratio against the T19N biosensor [2]: 41%
B1: ROCK1 Rho binding domain (RBD, amino acids 905-1046), as the N-terminal module of the RhoC FLARE.sc biosensor (domain or fragment, UniProt Q13464 905-1046, looked up)
chain: ARGLLEEQYFELTQESKKAASRNRQEITDKDHTVSRLEEANSMLTKDIEILRRENEELTEKMKKAEEEYKLEKEEEISNLKAAFEKNINTERTLKTQAVNKLAEIMNRKDFKIDRKKANTQDLRKKEKENRKLQLELNQERE
notes: It is split from RhoC here so that the intramolecular pair can be written; Subcloned into pTriEX-HisMyc4 (Novagen), which may add His and Myc tags; source: HEK293T, transfected (Lipofectamine2000), in live cell suspension; not shown: monomeric Cerulean, C-terminal, kept
